Laboratory results published in PMC9544432 (Proteins, 2021).
Numbering of substitutions follows the chain as printed. Where two headings read alike, the source gives them in different places.

Experiments:
Experiment in all cases: SPR
VEGFR2(D2–3) D257A/E261A = molecular target: T1, VEGFR2(D2–3) D257A/E261A (human)
T1 chain: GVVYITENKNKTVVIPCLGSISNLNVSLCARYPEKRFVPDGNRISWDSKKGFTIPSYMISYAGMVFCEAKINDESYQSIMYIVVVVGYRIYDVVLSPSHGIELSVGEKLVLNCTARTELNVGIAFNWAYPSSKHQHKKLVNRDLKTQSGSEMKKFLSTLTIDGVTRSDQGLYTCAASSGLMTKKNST

[1] = molecular target: T2, VEGFR2(D2–3), domains 2 and 3 of the extracellular portion of human VEGFR2, wild type (human)
T2 chain: T1 chain with A124D, A128E

[2] = molecular target: T2, VEGFR2(D2–3), domains 2 and 3 of the …

B1: KD035 antigen-binding fragment (Fab) (Fab, V domains shown)
VH: EVQLLESGGGLVQPGGSLRLSCAASGFTFSWYVMGWVRQAPGKGLEWVSSIYPSGGATNYADSVKGRFTISRDNSKNTLYLQMNSLRAEDTAVYYCARGNYFDYWGQGTLVTVSS
VL: QSVLTQPPSVSVSPGQTASITCSGEKLGDEYASWYQQKPGQSPVLVIYQDNKRPSGIPERFSGSNSGNTATLTISGTQAMDEADYYCQAWDSSTLLFGGGTKLTVL
- Kd (VEGFR2(D2–3) D257A/E261A): 35.8 nM
- Kd [1]: 1.3 nM
- Kd [2]: 0.22 nM
